{"source": "paper PMC12045048", "molecular_target": "AMBRA1 (activating molecule in beclin-1-regulated autophagy), endogenous in MDA-MB-231 cells (UniProt Q9C0C7)", "sequence (Q9C0C7 whole entry)": "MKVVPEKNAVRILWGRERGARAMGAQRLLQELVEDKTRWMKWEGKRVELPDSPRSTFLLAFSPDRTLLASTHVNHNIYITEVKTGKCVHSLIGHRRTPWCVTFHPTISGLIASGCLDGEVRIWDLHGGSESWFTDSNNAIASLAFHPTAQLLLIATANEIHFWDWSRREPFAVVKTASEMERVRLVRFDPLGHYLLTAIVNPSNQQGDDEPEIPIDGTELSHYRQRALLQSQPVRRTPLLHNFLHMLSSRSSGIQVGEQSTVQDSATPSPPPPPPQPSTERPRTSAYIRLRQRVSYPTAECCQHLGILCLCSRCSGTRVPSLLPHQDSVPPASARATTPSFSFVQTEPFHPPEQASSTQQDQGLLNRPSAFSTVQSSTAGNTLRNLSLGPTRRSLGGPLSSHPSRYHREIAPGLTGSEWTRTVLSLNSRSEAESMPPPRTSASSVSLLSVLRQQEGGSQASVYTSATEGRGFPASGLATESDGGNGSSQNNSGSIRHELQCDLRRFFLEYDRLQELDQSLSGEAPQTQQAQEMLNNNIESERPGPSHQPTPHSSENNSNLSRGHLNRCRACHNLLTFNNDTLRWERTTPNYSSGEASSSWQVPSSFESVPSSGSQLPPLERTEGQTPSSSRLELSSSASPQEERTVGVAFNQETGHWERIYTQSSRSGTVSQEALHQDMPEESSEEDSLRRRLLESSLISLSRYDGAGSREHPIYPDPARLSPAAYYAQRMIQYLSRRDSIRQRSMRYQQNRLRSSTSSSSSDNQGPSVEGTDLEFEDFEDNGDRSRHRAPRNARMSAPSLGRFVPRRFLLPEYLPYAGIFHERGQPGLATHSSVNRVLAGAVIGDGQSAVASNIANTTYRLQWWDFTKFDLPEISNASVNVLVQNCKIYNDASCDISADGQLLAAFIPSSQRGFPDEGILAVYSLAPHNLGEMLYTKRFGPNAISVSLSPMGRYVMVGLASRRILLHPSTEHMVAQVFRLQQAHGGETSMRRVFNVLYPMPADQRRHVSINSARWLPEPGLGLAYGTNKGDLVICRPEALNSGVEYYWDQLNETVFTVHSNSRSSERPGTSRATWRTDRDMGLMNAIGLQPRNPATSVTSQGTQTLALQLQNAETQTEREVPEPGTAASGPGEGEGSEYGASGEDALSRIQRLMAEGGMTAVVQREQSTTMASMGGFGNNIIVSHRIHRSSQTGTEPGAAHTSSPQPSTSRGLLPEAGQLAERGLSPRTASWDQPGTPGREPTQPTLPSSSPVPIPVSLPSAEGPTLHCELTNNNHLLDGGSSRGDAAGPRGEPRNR", "experiment": "anti-FLAG co-immunoprecipitation with proteomics (spectral counts)", "conditions": "parent: 0"}
{"substance": "FLAG–Rab40c (wild type) in MDA-MB-231 cells (from UniProt Q96S21) 4A (211-LPLP-216 to 211-AAAA-216)", "values": [{"measurement": "other: Spectral Counts (spectral counts)", "result": 7}]}
